Earlier results in publication PMC4083100.

Target: FcεRI (Homo sapiens) (UniProt P12319)
Sequence of UniProt P12319 (P12319 26-257): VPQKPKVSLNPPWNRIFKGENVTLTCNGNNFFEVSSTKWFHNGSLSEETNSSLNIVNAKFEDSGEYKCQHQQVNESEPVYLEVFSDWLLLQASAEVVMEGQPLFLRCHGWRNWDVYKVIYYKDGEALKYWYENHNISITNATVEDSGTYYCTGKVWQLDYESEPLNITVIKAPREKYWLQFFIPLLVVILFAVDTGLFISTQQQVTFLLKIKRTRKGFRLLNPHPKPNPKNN

Kd: < 1 nM
Substance: IgE (from UniProt P01854)
